Experimental data reported in patent US7803377B2, “Anti-DLL4 antibodies and methods using same” (Genentech, Inc., priority 2006, dated 2010).

Columns and labels:
full length DLL4 = molecular target: T1, full length DLL4 (Homo sapiens, UniProt Q9NR61); experiment: FACS analysis of transiently transfected 293 cells; type: binding; conditions: DLL4 transfected 293 cells; antibody 2 μg/ml
T1 construct: transiently transfected with vector, full length DLL4, Jag1 or DLL1; expressed in transfected cells; host or cells: 293 cells, transient

[1] = molecular target: T2, endogenously expressed DLL4 (Homo sapiens, UniProt Q9NR61); experiment: FACS analysis of HUVECs transfected with control or DLL4-specific siRNA; conditions: antibody 2 μg/ml, binding reduced with DLL4 siRNA
T2 construct: endogenous in cells; host or cells: HUVEC
Method: RNA interference. SMARTpool small interfering RNA (siRNA) duplexes targeting human DLL4 and Si Control Non-Target siRNA #2 were purchased from Dharmacon. Transfection of siRNR duplexes (50 nM) was done with HUVECs at 40% confluency using OptiMEM-1® and Lipfectamine™ 2000 (Invitrogen). FACS analysis was done 48 hr after siRNA transfection. The sequences of the 4 anti-DLL4 SMART pool siRNA were as follows:
FACS analysis of HUVECs transfected with control or DLL4-specific siRNA.

VEGFR2 = experiment: Real-time quantitative RT-PCR of VEGFR2 expression in HUVECs; type: cell-based, human; conditions: 3-D fibrin gel culture of HUVECs (7 d); anti-DLL4 antibody 5 μg/ml, DBZ 0.08 μM
Method: RNA extraction and Real-time quantitative RT-PCR. Extraction of total RNA from HUVECs in 2-D culture was done using RNeasy® Mini Kit (Qiagen) as per instructions of the manufacturer. To extract total RNA from HUVECs growing in fibrin gels, fibrin gels were treated with 10× trypsin-EDTA (Gibco) for 5 min to remove the top layer fibroblasts, followed by neutralization with 10% FBS in PBS. The gel clots were then removed from tissue culture wells and subjected to centrifugation (10K for 5 min) in microtubes to remove excessive fluid. The resulting gel “pellets” were lysed with lysis buffer (RNeasy® Mini Kit), and further processed as with HUVECs in 2-D culture. The quality of RNA was assessed using RNA 6000 Nano Chips and the Agilent 2100 Bioanalyzer (Agilent Technologies). Real-time quantitative RT-PCR reactions were done in triplicate using 7500 Real Time PCR System (Applied Biosystems). Human GAPDH was used as reference gene for normalization. The expression levels are expressed as the mean (±SEM) fold mRNA changes relative to control from 3 separate determinations. The forward and reverse primer and probe sequences for VEGFR2, TGFβ2 and GAPDH were as follows.
Therefore, while VEGF can act upstream of DLL4/Notch pathway, DLL4/Notch is capable of fine-tuning the response through negatively regulating VEGFR2 expression.

[2] = test system: mouse leukemia WEHI-3 cells; experiment: Tumor model WEHI3; type: in vivo; conditions: treatment initiated at ≧250 mm^3
Method: (§1) Tumor models. Beige nude female mice of 8- to 10-week-old were used. To obtain subcutaneous tumors, mice were injected with 0.1 ml cell suspension containing 50% matrigel (BD Bioscience) into the right posterior flank. 5×10^6 human colon cancer HM7 cells, 10×10^6 human colon carcinoma Colo205 cells, 10×10^6 human lung carcinoma Calu6 cells, 10×10^6 human lung carcinoma MV-522 cells, 10×10^6 mouse leukemia WEHI-3 cells, 10×10^6 mouse lymphoma EL4 cells, 10×10^6 human ovarian cancer SK-OV-3 X1 cells, 10×06 mouse lung cancer LL2 cells, 10×10^6 leukemia/lymphoma EL4 cells, or 10×10^6 non-small lung cancer H1299 cells were injected into each mouse. For human melanoma MDA-MB-435 model, mice were injected into the mammary fat pad with 0.1 ml cell (5×10^6) suspension containing 50% matrigel. […] For the following tumor models, each test mouse received a subcutaneous tumor fragment (1 mm^3) implanted in the right flank: non-small lung cancer SKMES-1, human breast cancer MX-1, human colorectal cancer SW620 and human adenocarcinoma LS174T. The tumor growth was quantitated by caliper measurements. Tumor volume (mm^3) was determined by measuring the length (l) and width (w) and calculating the volume (V=lw2/2). 10 to 15 animals were included in each group. Statistical comparison of treatment groups was performed using two-tailed Student's t-test. […]

human breast cancer MX-1 = experiment: Tumor model MX-1; type: in vivo, mouse; conditions: 5 mg/kg, IP, twice weekly after establishment of the tumors
Method: as §1

[3] = test system: human adenocarcinoma LS174T; experiment: Tumor model LS174T; type: in vivo, mouse; conditions: 5 mg/kg, IP, twice weekly after establishment of the tumors
Method: as §1

DLL1 = molecular target: T3, DLL1 (Homo sapiens, UniProt O00548); experiment: FACS analysis of transiently transfected 293 cells; type: binding; parameters: transiently transfected with vector, full length DLL4, Jag1 or DLL1; expressed in transfected cells; host or cells: 293 cells, transient; conditions: DLL1 transfected 293 cells; antibody 2 μg/ml
T3 sequence (O00548 18-723): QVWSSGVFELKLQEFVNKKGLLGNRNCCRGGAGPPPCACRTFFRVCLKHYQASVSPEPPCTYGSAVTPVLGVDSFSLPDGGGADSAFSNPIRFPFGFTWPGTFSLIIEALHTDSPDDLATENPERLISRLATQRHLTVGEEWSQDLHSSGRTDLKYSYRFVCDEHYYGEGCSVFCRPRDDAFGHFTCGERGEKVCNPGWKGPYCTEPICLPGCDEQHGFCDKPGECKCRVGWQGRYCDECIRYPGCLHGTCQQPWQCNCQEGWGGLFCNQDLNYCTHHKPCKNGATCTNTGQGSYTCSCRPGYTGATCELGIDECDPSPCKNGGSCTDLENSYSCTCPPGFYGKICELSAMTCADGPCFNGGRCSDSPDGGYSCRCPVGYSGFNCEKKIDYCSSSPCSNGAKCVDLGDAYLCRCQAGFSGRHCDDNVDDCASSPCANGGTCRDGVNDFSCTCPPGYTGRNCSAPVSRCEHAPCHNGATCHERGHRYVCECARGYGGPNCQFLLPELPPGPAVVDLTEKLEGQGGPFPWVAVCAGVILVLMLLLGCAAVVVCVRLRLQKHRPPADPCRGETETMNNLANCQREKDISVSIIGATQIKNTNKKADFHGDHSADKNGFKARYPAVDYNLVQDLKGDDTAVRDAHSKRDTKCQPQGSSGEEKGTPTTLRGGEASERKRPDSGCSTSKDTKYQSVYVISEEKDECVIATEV
Excerpt: (§2) Expression of Jag1 and DLL1 was confirmed by the binding of recombinant rat Notch1-Fc (rrNotch1-Fc, middle panel) and recombinant rat Notch2-Fc (rrNotch2-Fc, bottom panel), respectively.

Jag1 = Jag1 (Homo sapiens, UniProt P78504); experiment: FACS analysis of transiently transfected 293 cells; type: binding; parameters: transiently transfected with vector, full length DLL4, Jag1 or DLL1; expressed in transfected cells; host or cells: 293 cells, transient; conditions: Jag1 transfected 293 cells; antibody 2 μg/ml
Excerpt: as §2

## YW26.82: affinity matured anti-DLL4 monoclonal antibody; HVR-H1/H2/H3 SEQ ID NO:1, 8, 9; HVR-L1/L2/L3 SEQ ID NO:10, 11, 18
Full length DLL4
  binding by FACS: significant binding
[1]
  binding to endogenously expressed DLL4 by FACS: specifically bound to endogenously expressed DLL4
VEGFR2
  VEGFR2 expression on Notch blockade: upregulation of VEGFR2
[2]
  tumor growth, single agent: significant inhibition of tumor growth
Human breast cancer MX-1
  tumor growth, single agent: inhibited tumor growth alone
[3]
  tumor growth, single agent: inhibited tumor growth alone
DLL1
  binding by FACS: Significant binding was not detected
Jag1
  binding by FACS: Significant binding was not detected
